These results are taken from US20140303084A1 (Biogen, published 2014).

Square brackets hold non-standard residues; d marks the D form. Ends that are not written are not given here. NMeW = CN[C@@H](Cc1c[nH]c2ccccc12)C(=O)O; NMeY = CN[C@@H](Cc1ccc(O)cc1)C(=O)O; NMeF = CN[C@@H](Cc1ccccc1)C(=O)O; NMeT = CN[C@H](C(=O)O)[C@@H](C)O; NMeL = CN[C@@H](CC(C)C)C(=O)O; NMeK = CN[C@@H](CCCCN)C(=O)O; NMeS = CN[C@@H](CO)C(=O)O; NMeA = CN[C@@H](C)C(=O)O; Orn = NCCC[C@H](N)C(=O)O; Dab = NCC[C@H](N)C(=O)O; Dap = NC[C@H](N)C(=O)O

B1: KKTCLASYCWLF (peptide)
peptide: KKTCLASYCWLF
B2: KLTCLASY-Pen-WLF (peptide)
peptide: KLTCLASYXWLF
modifications: not fully specified; Pen 9
B3: KLT-Lys-LASY-Glu-WLF (peptide)
peptide: KLTKLASYEWLF
B4: KLTCLASYCW (peptide)
peptide: KLTCLASYCW
B5: KLTCLASYcWLF (peptide)
peptide: KLTCLASY[dC]WLF
modifications: cysteine pairing not given here
B6: KLTCLASKCWLF (peptide)
peptide: KLTCLASKCWLF
B7: KLTCKASYCWLF (peptide)
peptide: KLTCKASYCWLF
B8: KLT-Dap-LASY-Glu-WLF (peptide)
peptide: KLT[Dap]LASYEWLF
modifications: not fully specified; printed as KLT-Dap-LASY-Glu-WLF
B9: KLT-Glu-LASY-Dap-WLF (peptide)
peptide: KLTELASY[Dap]WLF
modifications: not fully specified; printed as KLT-Glu-LASY-Dap-WLF
B10: KLTCLAS-MeTyr-CWLF (peptide)
peptide: KLTCLAS[NMeY]CWLF
modifications: cysteine pairing not given here
B11: KLTCLaSYCWLF (peptide)
peptide: KLTCL[dA]SYCWLF
modifications: not fully specified (bridges); printed as KLTCLaSYCWLF; cysteine pairing not given here
B12: KLTC-MeLeu-ASYCWLF (peptide)
peptide: KLTC[NMeL]ASYCWLF
modifications: cysteine pairing not given here
B13: KLTCLASyCWLF (peptide)
peptide: KLTCLAS[dY]CWLF
modifications: not fully specified (bridges); printed as KLTCLASyCWLF; cysteine pairing not given here
B14: KLTCL-MeAla-SYCWLF (peptide)
peptide: KLTCL[NMeA]SYCWLF
modifications: cysteine pairing not given here
B15: KLTCLASYCW-MeLeu-F (peptide)
peptide: KLTCLASYCW[NMeL]F
modifications: cysteine pairing not given here
B16: KLTCLSSYCWLF (peptide)
peptide: KLTCLSSYCWLF
B17: KLT-Glu-LASY-Orn-WLF (peptide)
peptide: KLTELASY[Orn]WLF
modifications: not fully specified; printed as KLT-Glu-LASY-Orn-WLF
B18: MeLys-LTCLASYCWLF (peptide)
peptide: [NMeK]LTCLASYCWLF
modifications: cysteine pairing not given here
B19: KLTCLGSYCWLF (peptide)
peptide: KLTCLGSYCWLF
B20: KL-MeThr-CLASYCWLF (peptide)
peptide: KL[NMeT]CLASYCWLF
modifications: cysteine pairing not given here
B21: KLTCLA-HSe-YCWLF (peptide)
peptide: KLTCLAXYCWLF
modifications: not fully specified; HSe 7
B22: KLTALASYAWLF (peptide)
peptide: KLTALASYAWLF
B23: KLTCL-Dpr-SYCWLF (peptide)
peptide: KLTCLXSYCWLF
modifications: not fully specified; Dpr 6
B24: KLTCLASYC (peptide)
peptide: KLTCLASYC
B25: KLTCLASYCWLf (peptide)
peptide: KLTCLASYCWL[dF]
modifications: cysteine pairing not given here
B26: KLT-Orn-LASY-Glu-WLF-CONH2 (peptide)
peptide: KLT[Orn]LASYEWLF-NH2
modifications: N-terminus assumed
SMILES: CC(C)C[C@H](NC(=O)[C@H](CCCN)NC(=O)[C@@H](NC(=O)[C@H](CC(C)C)NC(=O)[C@@H](N)CCCCN)[C@@H](C)O)C(=O)N[C@@H](C)C(=O)N[C@@H](CO)C(=O)N[C@@H](Cc1ccc(O)cc1)C(=O)N[C@@H](CCC(=O)O)C(=O)N[C@@H](Cc1c[nH]c2ccccc12)C(=O)N[C@@H](CC(C)C)C(=O)N[C@@H](Cc1ccccc1)C(N)=O
B27: Dpr-LTCLASYCWLF (peptide)
peptide: [Dap]LTCLASYCWLF
modifications: not fully specified; printed as Dpr-LTCLASYCWLF; cysteine pairing not given here
B28: Lys(Me)2-LTCLASYCWLF (peptide)
peptide: KLTCLASYCWLF
modifications: Lys(Me)2 1
B29: Lys(Me3CI)-LTCLASYCWLF (peptide)
peptide: KLTCLASYCWLF
modifications: Lys(Me3CI) 1
B30: KLTCLAsYCWLF (peptide)
peptide: KLTCLA[dS]YCWLF
modifications: cysteine pairing not given here
B31: Orn-LTCLASYCWLF (peptide)
peptide: XLTCLASYCWLF
modifications: not fully specified; Orn 1
B32: KLTSLASYSWLF (peptide)
peptide: KLTSLASYSWLF
B33: KLTCL-Abu-SYCWLF (peptide)
peptide: KLTCLXSYCWLF
modifications: not fully specified; Abu 6
B34: kLTCLASYCWLF (peptide)
peptide: [dK]LTCLASYCWLF
modifications: not fully specified; cysteine pairing not given here
B35: KLTCLASYCWL-MePhe (peptide)
peptide: KLTCLASYCWL[NMeF]
modifications: cysteine pairing not given here
B36: KLTCLASYCWLK (peptide)
peptide: KLTCLASYCWLK
B37: QLTCLASYCWLF (peptide)
peptide: QLTCLASYCWLF
B38: KLTCLA-MeSer-YCWLF (peptide)
peptide: KLTCLA[NMeS]YCWLF
modifications: cysteine pairing not given here
B39: KLTCLASYC-MeTrp-LF (peptide)
peptide: KLTCLASYC[NMeW]LF
modifications: cysteine pairing not given here
B40: KLT-Orn-LASY-Glu-WLF-COOH (peptide)
peptide: KLT[Orn]LASYEWLF-OH
modifications: N-terminus assumed
SMILES: CC(C)C[C@H](NC(=O)[C@H](CCCN)NC(=O)[C@@H](NC(=O)[C@H](CC(C)C)NC(=O)[C@@H](N)CCCCN)[C@@H](C)O)C(=O)N[C@@H](C)C(=O)N[C@@H](CO)C(=O)N[C@@H](Cc1ccc(O)cc1)C(=O)N[C@@H](CCC(=O)O)C(=O)N[C@@H](Cc1c[nH]c2ccccc12)C(=O)N[C@@H](CC(C)C)C(=O)N[C@@H](Cc1ccccc1)C(=O)O
B41: KLTCL-Aib-SYCWLF (peptide)
peptide: KLTCLXSYCWLF
modifications: not fully specified; Aib 6
B42: KLTCLKSYCWLF (peptide)
peptide: KLTCLKSYCWLF
B43: CLASYCWLF (peptide)
peptide: CLASYCWLF
B44: compound 10 (peptide)
peptide: [dK][NMeL]TCLASYCWLFWTGIA-NH2
modifications: cysteine pairing not given here
B45: KLTCLA-Dpr-YCWLF (peptide)
peptide: KLTCLA[Dap]YCWLF
modifications: not fully specified; printed as KLTCLA-Dpr-YCWLF; cysteine pairing not given here
B46: TCLASYCWLF (peptide)
peptide: TCLASYCWLF
B47: K-MeLeu-TCLASYCWLF (peptide)
peptide: K[NMeL]TCLASYCWLF
modifications: cysteine pairing not given here
B48: KLT-Pen-LASYCWLF (peptide)
peptide: KLTXLASYCWLF
modifications: not fully specified; Pen 4
B49: KLT-Glu-LASY-Dab-WLF (peptide)
peptide: KLTELASY[Dab]WLF
modifications: not fully specified; printed as KLT-Glu-LASY-Dab-WLF

In the test the target is human Factor IXa (human, UniProt P00740 47-191; P00740 227-461). Nature of the test: cell-based or functional assay.
In the case of B1, the “EC50 [µM], FXa generation assay” value is over 50 µM.
The same measure, in the same setting: next, B2: over 20 µM; B3: under 0.5 µM.
On the same count and under the same terms, the figure for B4 is over 10 µM.
Same read-out and setting: the figure for B5 is over 1 µM; for B6 it is over 100 µM.
With B7, the “EC50 [µM], FXa generation assay” value was over 1 µM.
The same measure, in the same setting: the figure for B8 is under 0.5 µM.
On the same count and under the same terms, next, B9: under 0.5 µM; B10: over 20 µM.
Still for that read-out and setting: the figure for B11 is over 5 µM; for B12 it is over 20 µM.
For B13, the “EC50 [µM], FXa generation assay” value was over 5 µM.
On the same count and under the same terms, next, B14: over 20 µM; B15: over 1 µM.
Same read-out and setting: next, B16: over 1 µM; B17: under 0.5 µM; B18: under 0.5 µM.
For B19, the “EC50 [µM], FXa generation assay” value was over 1 µM.
The same measure, in the same setting: next, B20: under 0.5 µM; B21: over 1 µM.
Turning to B22, the “EC50 [µM], FXa generation assay” value was over 5.8 µM.
Still for that read-out and setting: the figure for B23 is over 1 µM.
Take B24: the “EC50 [µM], FXa generation assay” value is over 1 µM.
Still for that read-out and setting: next, B25: over 1 µM; B26: under 0.5 µM; B27: over 1 µM.
Take B28: the “EC50 [µM], FXa generation assay” value is over 1 µM.
The same measure, in the same setting: next, B29: over 1 µM.
Still for that read-out and setting: next, B30: over 1 µM; B31: under 0.5 µM.
Turning to B32, the “EC50 [µM], FXa generation assay” value is over 15 µM.
The same measure, in the same setting: the figure for B33 is over 1 µM; for B34 it is under 0.5 µM.
For B35, the “EC50 [µM], FXa generation assay” value is over 1 µM.
B36: the “EC50 [µM], FXa generation assay” value was over 100 µM.
On the same count and under the same terms, the figure for B37 is over 20 µM; for B38 it is over 20 µM; for B39 it is over 20 µM.
Still for that read-out and setting: next, B40: under 0.5 µM; B41: over 20 µM; B42: over 1 µM.
The same measure, in the same setting: next, B43: over 20 µM.
For the molecule B44, the “EC50 [µM], FXa generation assay with hFIXa” value was under 0.5 µM.
As to B45, the “EC50 [µM], FXa generation assay” value was over 20 µM.
Regarding B46, the “EC50 [µM], FXa generation assay” value is under 0.5 µM.
Same read-out and setting: the figure for B47 is under 0.5 µM; for B48 it is over 20 µM; for B49 it is over 1 µM.
